Data on five substances can be found in patent US20250084453.

Data set [1] deals with BRD2, endogenous in HEK293T cells (UniProt P25440).
Data set [2] deals with BRD4, endogenous in HEK293T cells (UniProt O60885).
For data set [3], the target named is BRD3, endogenous in HEK293T cells (UniProt Q15059).
The target of data set [4] is translation termination factor GSPT2, endogenous in HEK293T cells (UniProt Q8IYD1).
Data set [5] addresses GLUL (glutamine synthetase), endogenous in HEK293T cells (UniProt P15104).
The target of data set [6] is VCL (vinculin), endogenous in HEK293T cells (UniProt P18206).
Data set [7] has as its target translation termination factor GSPT1, endogenous in HEK293T cells (UniProt P15170).
Data set [8] concerns the target V5-tagged IKZF1 protein (UniProt Q13422).
In data set [9] the target is T1, RBM39 (RNA-Binding Motif Protein 39)/CAPERα, endogenous in HEK293T cells (UniProt Q14498).
T1 sequence: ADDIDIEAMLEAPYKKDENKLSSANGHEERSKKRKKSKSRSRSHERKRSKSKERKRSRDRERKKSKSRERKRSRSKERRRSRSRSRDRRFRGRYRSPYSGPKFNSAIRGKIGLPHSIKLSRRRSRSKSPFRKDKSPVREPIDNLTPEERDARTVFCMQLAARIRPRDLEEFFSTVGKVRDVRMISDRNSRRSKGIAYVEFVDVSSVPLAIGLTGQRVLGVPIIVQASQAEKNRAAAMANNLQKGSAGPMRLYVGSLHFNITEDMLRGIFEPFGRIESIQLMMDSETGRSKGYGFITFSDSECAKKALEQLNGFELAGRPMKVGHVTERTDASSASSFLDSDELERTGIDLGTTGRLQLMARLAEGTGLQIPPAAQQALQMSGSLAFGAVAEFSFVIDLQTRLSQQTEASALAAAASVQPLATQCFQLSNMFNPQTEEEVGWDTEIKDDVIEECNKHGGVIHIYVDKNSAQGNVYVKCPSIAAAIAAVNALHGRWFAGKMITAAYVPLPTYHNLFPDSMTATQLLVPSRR

Data set [10] addresses HIF1A, endogenous in HEK293T or A375 cells (UniProt Q16665).

Sequence of translation termination factor GSPT1, endogenous in HEK293T cells (P15170 whole entry): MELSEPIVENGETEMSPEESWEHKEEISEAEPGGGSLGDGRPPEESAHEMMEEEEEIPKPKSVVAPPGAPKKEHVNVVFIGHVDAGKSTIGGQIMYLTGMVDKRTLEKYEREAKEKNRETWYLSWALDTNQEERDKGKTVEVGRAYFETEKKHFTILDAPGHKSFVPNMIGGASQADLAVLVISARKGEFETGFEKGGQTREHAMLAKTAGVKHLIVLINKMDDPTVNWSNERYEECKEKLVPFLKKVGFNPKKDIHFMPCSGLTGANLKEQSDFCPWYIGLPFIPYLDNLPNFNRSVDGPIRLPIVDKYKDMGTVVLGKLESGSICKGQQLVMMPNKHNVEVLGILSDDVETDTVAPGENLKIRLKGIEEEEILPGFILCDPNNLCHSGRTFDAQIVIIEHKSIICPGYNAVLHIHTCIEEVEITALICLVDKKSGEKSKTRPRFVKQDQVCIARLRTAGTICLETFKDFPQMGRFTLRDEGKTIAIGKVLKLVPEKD
Sequence of VCL (vinculin), endogenous in HEK293T cells (P18206 other isoform, or with tags, fused parts or gaps): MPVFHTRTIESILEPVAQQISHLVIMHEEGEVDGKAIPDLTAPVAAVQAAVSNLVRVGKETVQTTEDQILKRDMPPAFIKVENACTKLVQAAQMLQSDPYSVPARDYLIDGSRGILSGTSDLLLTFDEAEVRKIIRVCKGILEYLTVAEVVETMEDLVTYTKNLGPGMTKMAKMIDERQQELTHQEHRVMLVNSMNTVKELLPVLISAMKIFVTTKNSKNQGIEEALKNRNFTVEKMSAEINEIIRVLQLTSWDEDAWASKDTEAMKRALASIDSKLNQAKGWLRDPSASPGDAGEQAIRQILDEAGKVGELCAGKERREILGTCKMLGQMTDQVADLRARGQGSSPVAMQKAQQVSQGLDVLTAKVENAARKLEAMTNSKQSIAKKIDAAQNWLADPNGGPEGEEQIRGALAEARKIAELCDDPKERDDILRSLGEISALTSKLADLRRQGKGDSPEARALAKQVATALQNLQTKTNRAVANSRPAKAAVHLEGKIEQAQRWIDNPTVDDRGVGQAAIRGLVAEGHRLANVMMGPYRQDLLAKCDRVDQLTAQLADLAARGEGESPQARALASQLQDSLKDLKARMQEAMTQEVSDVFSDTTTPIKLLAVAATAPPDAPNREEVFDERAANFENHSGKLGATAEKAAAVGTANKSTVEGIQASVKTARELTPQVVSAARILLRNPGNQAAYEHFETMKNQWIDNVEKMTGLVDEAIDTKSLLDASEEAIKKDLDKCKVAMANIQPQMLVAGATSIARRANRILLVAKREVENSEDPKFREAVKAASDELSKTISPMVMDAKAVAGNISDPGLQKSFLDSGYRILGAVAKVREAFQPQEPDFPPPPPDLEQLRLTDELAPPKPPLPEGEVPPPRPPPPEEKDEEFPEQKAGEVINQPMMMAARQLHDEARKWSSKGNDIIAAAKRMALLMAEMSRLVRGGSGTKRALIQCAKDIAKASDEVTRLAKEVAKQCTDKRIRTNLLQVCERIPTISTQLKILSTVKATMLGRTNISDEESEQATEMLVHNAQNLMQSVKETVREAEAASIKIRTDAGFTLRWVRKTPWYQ
Sequence of translation termination factor GSPT2, endogenous in HEK293T cells (Q8IYD1 whole entry): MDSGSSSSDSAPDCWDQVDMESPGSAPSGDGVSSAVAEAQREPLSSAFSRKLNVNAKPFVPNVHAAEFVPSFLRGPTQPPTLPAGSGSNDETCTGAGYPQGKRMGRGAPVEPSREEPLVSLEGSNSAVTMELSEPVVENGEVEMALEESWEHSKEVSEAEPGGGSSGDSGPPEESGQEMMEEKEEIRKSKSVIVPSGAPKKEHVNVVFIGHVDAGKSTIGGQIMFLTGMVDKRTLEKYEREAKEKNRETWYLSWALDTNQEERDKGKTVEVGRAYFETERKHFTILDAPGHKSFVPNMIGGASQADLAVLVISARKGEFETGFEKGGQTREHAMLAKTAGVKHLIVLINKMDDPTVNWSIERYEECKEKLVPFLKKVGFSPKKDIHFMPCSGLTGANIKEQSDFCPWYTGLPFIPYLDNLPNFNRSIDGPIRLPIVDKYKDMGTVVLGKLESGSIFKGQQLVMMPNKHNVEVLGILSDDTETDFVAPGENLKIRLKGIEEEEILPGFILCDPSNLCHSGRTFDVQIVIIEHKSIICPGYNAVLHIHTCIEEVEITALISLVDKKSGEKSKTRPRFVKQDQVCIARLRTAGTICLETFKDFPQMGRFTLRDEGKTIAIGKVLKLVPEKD
Sequence of V5-tagged IKZF1 protein (Q13422 whole entry, looked up): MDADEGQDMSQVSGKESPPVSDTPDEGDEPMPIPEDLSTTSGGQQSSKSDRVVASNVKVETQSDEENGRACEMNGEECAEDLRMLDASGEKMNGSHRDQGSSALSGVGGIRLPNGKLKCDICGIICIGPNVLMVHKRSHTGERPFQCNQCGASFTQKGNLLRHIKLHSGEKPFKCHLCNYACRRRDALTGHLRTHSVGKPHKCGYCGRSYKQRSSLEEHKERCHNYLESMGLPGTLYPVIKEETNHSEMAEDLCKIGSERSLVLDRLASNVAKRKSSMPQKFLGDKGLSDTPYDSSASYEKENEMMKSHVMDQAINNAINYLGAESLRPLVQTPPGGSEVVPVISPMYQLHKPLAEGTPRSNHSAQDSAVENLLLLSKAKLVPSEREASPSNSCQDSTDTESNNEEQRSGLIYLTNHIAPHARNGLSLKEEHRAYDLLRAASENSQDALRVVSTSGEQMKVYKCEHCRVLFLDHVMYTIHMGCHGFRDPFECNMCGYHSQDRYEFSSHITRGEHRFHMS
Sequence of BRD3, endogenous in HEK293T cells (Q15059 2-726): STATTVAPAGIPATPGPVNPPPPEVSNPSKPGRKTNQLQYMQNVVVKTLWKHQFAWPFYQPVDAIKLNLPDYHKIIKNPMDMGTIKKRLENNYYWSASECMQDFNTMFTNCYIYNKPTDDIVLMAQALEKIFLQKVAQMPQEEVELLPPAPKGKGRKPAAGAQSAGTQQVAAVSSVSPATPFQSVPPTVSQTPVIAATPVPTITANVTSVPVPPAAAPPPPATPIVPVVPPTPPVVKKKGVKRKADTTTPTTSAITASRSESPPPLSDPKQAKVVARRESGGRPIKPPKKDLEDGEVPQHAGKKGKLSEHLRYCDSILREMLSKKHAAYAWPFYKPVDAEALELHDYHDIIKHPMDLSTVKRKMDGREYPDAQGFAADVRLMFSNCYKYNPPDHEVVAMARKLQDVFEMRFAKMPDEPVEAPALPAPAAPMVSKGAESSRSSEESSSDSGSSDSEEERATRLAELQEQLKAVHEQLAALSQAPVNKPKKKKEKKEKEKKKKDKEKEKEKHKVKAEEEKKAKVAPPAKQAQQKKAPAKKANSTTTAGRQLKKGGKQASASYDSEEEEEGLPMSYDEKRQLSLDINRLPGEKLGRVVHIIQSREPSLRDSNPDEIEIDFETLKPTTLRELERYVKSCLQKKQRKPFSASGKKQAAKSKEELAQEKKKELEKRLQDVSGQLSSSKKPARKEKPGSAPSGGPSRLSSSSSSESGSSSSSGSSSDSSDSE
Sequence of BRD2, endogenous in HEK293T cells (P25440 whole entry, looked up): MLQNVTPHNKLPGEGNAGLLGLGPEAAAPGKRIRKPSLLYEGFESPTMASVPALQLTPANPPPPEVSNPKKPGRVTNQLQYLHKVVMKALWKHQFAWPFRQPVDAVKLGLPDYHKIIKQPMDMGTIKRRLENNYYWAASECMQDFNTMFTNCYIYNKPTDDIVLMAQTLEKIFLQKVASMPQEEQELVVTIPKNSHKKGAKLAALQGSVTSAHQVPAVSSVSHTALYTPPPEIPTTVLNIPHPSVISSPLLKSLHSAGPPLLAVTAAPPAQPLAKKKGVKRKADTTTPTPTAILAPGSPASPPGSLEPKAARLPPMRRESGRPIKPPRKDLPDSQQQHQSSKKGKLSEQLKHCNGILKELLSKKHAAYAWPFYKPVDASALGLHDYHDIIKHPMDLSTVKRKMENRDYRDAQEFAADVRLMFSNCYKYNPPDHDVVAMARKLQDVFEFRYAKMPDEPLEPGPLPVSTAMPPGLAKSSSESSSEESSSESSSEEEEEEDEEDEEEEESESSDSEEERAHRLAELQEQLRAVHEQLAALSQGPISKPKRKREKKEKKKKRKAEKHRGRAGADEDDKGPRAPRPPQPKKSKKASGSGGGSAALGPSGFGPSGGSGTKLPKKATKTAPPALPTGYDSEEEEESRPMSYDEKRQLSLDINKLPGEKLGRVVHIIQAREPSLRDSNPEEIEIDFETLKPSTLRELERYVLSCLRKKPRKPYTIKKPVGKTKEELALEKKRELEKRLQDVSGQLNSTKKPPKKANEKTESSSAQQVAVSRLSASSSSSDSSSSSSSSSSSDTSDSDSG
Sequence of HIF1A, endogenous in HEK293T or A375 cells (Q16665 whole entry, looked up): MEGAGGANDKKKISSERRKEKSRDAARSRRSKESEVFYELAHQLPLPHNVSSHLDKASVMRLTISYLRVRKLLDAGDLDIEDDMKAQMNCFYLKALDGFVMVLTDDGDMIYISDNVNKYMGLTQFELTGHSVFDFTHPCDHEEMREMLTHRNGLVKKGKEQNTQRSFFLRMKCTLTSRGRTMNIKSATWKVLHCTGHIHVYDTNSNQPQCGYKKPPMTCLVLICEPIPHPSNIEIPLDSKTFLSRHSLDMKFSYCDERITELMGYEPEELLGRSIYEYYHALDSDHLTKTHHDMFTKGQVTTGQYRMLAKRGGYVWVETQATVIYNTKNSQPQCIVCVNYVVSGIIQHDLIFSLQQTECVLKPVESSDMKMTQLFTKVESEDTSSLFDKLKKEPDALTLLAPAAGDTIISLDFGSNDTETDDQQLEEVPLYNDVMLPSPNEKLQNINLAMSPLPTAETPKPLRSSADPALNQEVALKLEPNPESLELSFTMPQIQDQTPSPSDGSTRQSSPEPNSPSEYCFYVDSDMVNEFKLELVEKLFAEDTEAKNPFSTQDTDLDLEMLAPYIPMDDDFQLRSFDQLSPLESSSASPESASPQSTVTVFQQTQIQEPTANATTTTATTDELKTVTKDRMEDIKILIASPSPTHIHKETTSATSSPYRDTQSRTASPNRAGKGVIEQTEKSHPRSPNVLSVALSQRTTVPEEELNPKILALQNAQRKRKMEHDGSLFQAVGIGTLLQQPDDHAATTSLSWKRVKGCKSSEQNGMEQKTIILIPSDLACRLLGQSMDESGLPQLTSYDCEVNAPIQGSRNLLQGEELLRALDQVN

As for “CRBN E3 ligase fused at its carboxy terminus to E. coli wild-type BirA biotin ligase (CRBN-BirA)”, in data set [1], the “differential enrichment in streptavidin pulldown (MS, triplicates, A3-HA-Ub), PROTAC dBET6 (1 µM) against DMSO” value is “CRBN-BirA; ubiquitinated substrates BRD2, BRD3, BRD4 observed in the upper right portion of the top left volcano plot”. Besides, the “differential enrichment in streptavidin pulldown (MS, triplicates, A3-HA-Ub), PROTAC dBET6 (1 µM) against DMSO” value in [2] is on record as “CRBN-BirA; ubiquitinated substrates BRD2, BRD3, BRD4 observed in the upper right portion of the top left volcano plot”. Also, the “differential enrichment in streptavidin pulldown (MS, triplicates, A3-HA-Ub), PROTAC dBET6 (1 µM) against DMSO” value in data set [3] was “CRBN-BirA; ubiquitinated substrates BRD2, BRD3, BRD4 observed in the upper right portion of the top left volcano plot”. Further, in data set [4], the # of PSMs in streptavidin pulldown (MS), A3-Ub, CC-885 came to 20 PSMs; the # of PSMs in streptavidin pulldown (MS), A3-Ub, DMSO was 0 PSMs; the # of PSMs in streptavidin pulldown (MS), Avi-Ub, CC-885 was 13 PSMs; the # of PSMs in streptavidin pulldown (MS), Avi-Ub, DMSO came to 0 PSMs. For the same substance, in data set [4], the “biotinylation in streptavidin pulldown (MS, A3-HA-Ub, CC-885 1 µM), WT CRBN-BirA against loss-of-function mutants” value (“biotinylation … against loss-of-function mutants” for short) is “substrates GSPT1, GSPT2, VCL and CSNK1A1 were identified”; the “differential enrichment in streptavidin pulldown (MS, triplicates, A3-Ub), CC-885 against DMSO” value is “GSPT1 and GSPT2 are observed to be the most upregulated proteins, both by amount and by statistical significance”. Besides, the “proteins differentially biotinylated, VHL-BirA against CRBN-BirA (MS, triplicates, A3-tagged ubiquitin, HEK293T)” value in data set [5] is reported as “Other identified proteins included GLUL, which is a reported a CRBN substrate”. Further, the “biotinylation … against loss-of-function mutants” value in data set [6] is “substrates GSPT1, GSPT2, VCL and CSNK1A1 were identified”. In data set [7], this substance yielded a # of PSMs in streptavidin pulldown (MS), A3-Ub, CC-885 of 30 PSMs; a # of PSMs in streptavidin pulldown (MS), A3-Ub, DMSO of 0 PSMs; a # of PSMs in streptavidin pulldown (MS), Avi-Ub, CC-885 of 25 PSMs; a # of PSMs in streptavidin pulldown (MS), Avi-Ub, DMSO of 0 PSMs. In data set [7], the “biotinylated, ubiquitinated endogenous GSPT1 in streptavidin pulldown (Western blot, Avi-HA-Ub), with CC-885 (1 µM)” value was “mono- and poly-ubiquitinated GSPT1 captured by the streptavidin beads were only observed in conditions where CC-885 was present”; the “biotinylation … against loss-of-function mutants” value is “substrates GSPT1, GSPT2, VCL and CSNK1A1 were identified”; the “differential enrichment in streptavidin pulldown (MS, triplicates, A3-Ub), CC-885 against DMSO” value is “GSPT1 and GSPT2 are observed to be the most upregulated proteins, both by amount and by statistical significance”; the “sensitivity in detecting CC-885-induced ubiquitination of GSPT1 by CRBN (Western blot quantification), A3-tag” value was “when comparing A3-tag to Avi-tag (36.39 to 15.46, respectively)”. Further, in data set [7], the “sensitivity in detecting CC-885-induced ubiquitination of GSPT1 by CRBN (Western blot quantification), Avi-tag” value is “when comparing A3-tag to Avi-tag (36.39 to 15.46, respectively)” and the “ubiquitinated GSPT1 captured by streptavidin beads (Western blot quantification, Avi-HA-Ub), CC-885 against DMSO” value was 6-12 fold more ubiquitinated GSPT1 was captured by the streptavidin beads. Moreover, in data set [8], the “biotinylated, ubiquitinated V5-IKZF1 in streptavidin bead eluates (Western blot), Avi-Ub or A3-Ub, with pomalidomide (1 µM)” value is reported as “both substrate peptide-tagged ubiquitin variants showed pomalidomide-induced ubiquitination of IKZF1 by E3 ligase CRBN”; the “biotinylated, ubiquitinated V5-IKZF1 in streptavidin pulldown (Western blot, Avi-HA-Ub), with pomalidomide (1 µM)” value is “in conditions where pomalidomide was present, an increased amount of mono- and poly-ubiquitinated V5-IKZF1 was captured by the streptavidin beads”; the “sensitivity in detecting pomalidomide-induced ubiquitination of V5-IKZF1 (Western blot quantification), A3-tagged ubiquitin” value is 17.76 to 5.58 when comparing A3 to Avi; the “sensitivity in detecting pomalidomide-induced ubiquitination of V5-IKZF1 (Western blot quantification), Avi-tagged ubiquitin” value is reported as 17.76 to 5.58 when comparing A3 to Avi. Besides, in data set [8], the “ubiquitinated V5-IKZF1 captured by streptavidin beads (Western blot quantification, Avi-HA-Ub), pomalidomide against DMSO” value was “approximately 3.9-fold more ubiquitinated V5-IKZF1 substrate was captured by the streptavidin beads”.

Turning to CRBN-BirA mutant D249Y, the “biotinylation in streptavidin pulldown (MS, A3-HA-Ub, CC-885 1 µM), D249Y mutant against WT CRBN-BirA” value in data set [4], in data set [6] and in data set [7] was “a decrease in biotinylation by the loss-of-function CRBN-BirA mutants” throughout.

Take CRBN-BirA mutant W386A: the “biotinylation in streptavidin pulldown (MS, A3-HA-Ub, CC-885 1 µM), W386A mutant against WT CRBN-BirA” value in data set [4], in [6] and in [7] was “a decrease in biotinylation by the loss-of-function CRBN-BirA mutants” each time.

As to “DCAF15 fused to BirA biotin ligase (DCAF15-BirA)”, in data set [9], the “differential enrichment in streptavidin pulldown (MS, triplicates, A3-HA-Ub), E7820 (10 µM) against DMSO” value is “the induced ubiquitinated substrate RBM39/CAPERα was produced as a result of the use of the E7820 molecular glue in conjunction with DCAF15-BirA and associated CRL4 E3 ligase”.

Take “VHL E3 ligase fused to E. coli wild-type BirA biotin ligase (VHL-BirA)”: the “differential enrichment in streptavidin pulldown (MS, triplicates, A3-HA-Ub), PROTAC ARV-771 (1 µM) against DMSO” value is on record as “VHL-BirA; ubiquitinated substrates BRD2, BRD3, BRD4 observed in the upper right portion of the top right volcano plot” in [1]; “VHL-BirA; ubiquitinated substrates BRD2, BRD3, BRD4 observed in the upper right portion of the top right volcano plot” in [2]; “VHL-BirA; ubiquitinated substrates BRD2, BRD3, BRD4 observed in the upper right portion of the top right volcano plot” in data set [3]. In data set [10], the “proteins differentially biotinylated by VHL-BirA against CRBN-BirA (MS, triplicates, A3-tagged ubiquitin, HEK293T)” value is reported as “One of the best known VHL substrates, HIF1A was among the hits of differentially biotinylated proteins by VHL-BirA”.
